Here are results for one substance from article PMC9867772.

The experiment addresses Anthrol reductase CbAR from Cercospora sp. JNU001 (Cercospora sp. JNU001). Kind of experiment: SEC; purified CbAR on gel filtration (Supplementary Fig. 1b, c); the column of the purification was Hiload 16/600 Superdex 200 pg in 25 mM Tris-HCl pH 8.0, 150 mM NaCl. Background: Size exclusion chromatography separates by hydrodynamic size, large species first.

“Anthrol reductase CbAR from Cercospora sp. JNU001 (enzyme)” had a stoichiometry N of 2.

By stoichiometry N is commonly meant the number of molecules, sites or subunits per partner or assembly.
